We go through two molecules from PMC10880117.

The target of assay [1] is Human WT HSC70 (HSPA8) (human) (UniProt P11142).
In assay [2] the target is Human V95E HSC70 (HSPA8) (human) (UniProt P11142).

For “DnaJB4 (from UniProt Q9UDY4 1-337) (natural protein)”, the pseudo-Km of DnaJB4-stimulated ATPase activity (malachite green assay, 1 μM HSC70 titrated with DnaJB4, 37°C, Michaelis-Menten fit) was determined as 0.092 µM in assay [1] and 0.088 µM in assay [2].

B1: BAG1 (natural protein)
chain: MAQRGGARRPRGDRERLGSRLRALRPGREPRQSEPPAQRGPPPSGRPPARSTASGHDRPTRGAAAGARRPRMKKKTRRRSTRSEELTRSEELTLSEEATWSEEATQSEEATQGEEMNRSQEVTRDEESTRSEEVTREEMAAAGLTVTVTHSNEKHDLHVTSQQGSSEPVVQDLAQVVEEVIGVPQSFQKLIFKGKSLKEMETPLSALGIQDGCRVMLIGKKNSPQEEVELKKLKHLEKSVEKIADQLEELNKELTGIQQGFLPKDLQAEALCKLDRRVKATIEQFMKILEEIDTLILPENFKDSRLKRKGLVKKVQAFLAECDTVEQNICQETERLQSTNFALAE
In assay [2], B1 yielded a stimulation of ATPase activity (malachite green assay, normalised percent) as BAG1 is titrated into HSC70 (1 μM) and DnaJB4 (0.1 μM); value at the highest concentration tested of 25%.
